From PMC5880107, “The Sequence-specific Peptide-binding Activity of the Protein Sulfide Isomerase AGR2 Directs Its Stable Binding to the Oncogenic Receptor EpCAM*^([image sbox.jpg])” (Molecular & Cellular Proteomics : MCP, 2018)

B1: His-AGR2 WT (mature AGR2, amino acids 21-175, N-terminal 6xHis tag; plasmid pmAGR2) [human] / His-EpEX-CO, extracellular domain of EpCAM (amino acids 24-265), N-terminal 6xHis tag [human] (parent complex)
chain 1: RDTTVKPGAKKDTKDSRPKLPQTLSRGWGDQLIWTQTYEEALYKSKTSSKPLMIIHHLDECPHSQALKKVFAENKEIQKLAEQFVLLNLVYETTDKHLSPDGQYVPRIMFVDPSLTVRADITGRYSNRLYAYEPADTALLLDNMKKALKLLKTEL
chain 2: QEECVCENYKLAVNCFVNNNRQCQCTSVGAQNTVICSKLAAKCLVMKAEMNGSKLGRRAKPEGALQNNDGLYDPDCDESGLFKAKQCNGTSMCWCVNTAGVRRTDKDTEITCSERVRTYWIIIELKHKAREKPYDSKSLRTALQKEITTRYQLDPKFITSILYENNVITIDLVQNSSQKTQNDVDIADVAYYFEKDVKGESLFHSKKMDLTVNGEQLDLDPGQTLIYYVDEKAPEFSMQGLK
B2: wt-peptide PTTIYY (non-biotinylated hexapeptide) / His-AGR2 WT (mature AGR2, amino acids 21-175, N-terminal 6xHis tag; plasmid pmAGR2) [human] (parent complex)
chain 1: PTTIYY
chain 2: B1 chain 1

Variants of: B1
Test: ELISA (His-EpCAM solid phase; His-AGR2 mobile phase); point at 0.5 μg AGR2 (highest dose of the titration); no DTT; read off a plot
Variant chain 1 RDTTVKPGAKKDTKDSRPKLPQTLSRGWGDQLIWTQTYEEALYKSKTSSKPLMIIHHLDECPHSQALKKVFAENKEIQKLAEQFVLLNLVYETTDKHLSPDGQYVPRIMFVDPALTVRADITGRYSNRLYAYEPADTALLLDNMKKALKLLKTEL [chain 1 S114A] has a response of ~160 RLU.
In the case of chain 1 RDTTVKPGAKKDTKDSRPKLPQTLSRGWGDQLIWTQTYEEALYKSKTSSKPLMIIHHLDECPHSQALKKVFAENKEIQKLAEQFVLLNLVYETTDKHLSPDGQYVPRIMFVAPSLTVRADITGRYSNRLYAYEPADTALLLDNMKKALKLLKTEL [chain 1 D112A], the response is reported as ~140 RLU.
Work on chain 1 RDTTVKPGAKKDTKDSRPKLPQTLSRGWGDQLIWTQTYEEALYKSKTSSKPLMIIHHLDECPHSQALKKVFAENKEIQKLAEQFVLLNLVYETTDKHLSPDGQYVPRIMFVDASLTVRADITGRYSNRLYAYEPADTALLLDNMKKALKLLKTEL [chain 1 P113A] yielded a response of ~150 RLU.

Variants of: B1
Test: ELISA (His-EpCAM solid phase; His-AGR2 mobile phase); point at 0.5 μg AGR2 (highest dose of the titration); 1 mm DTT at the AGR2-binding stage; read off a plot
Variant chain 1 RDTTVKPGAKKDTKDSRPKLPQTLSRGWGDQLIWTQTYEEALYKSKTSSKPLMIIHHLDECPHSQALKKVFAENKEIQKLAEQFVLLNLVYETTDKHLSPDGQYVPRIMFVDPALTVRADITGRYSNRLYAYEPADTALLLDNMKKALKLLKTEL [chain 1 S114A] has a response of ~160 RLU.
In the case of chain 1 RDTTVKPGAKKDTKDSRPKLPQTLSRGWGDQLIWTQTYEEALYKSKTSSKPLMIIHHLDECPHSQALKKVFAENKEIQKLAEQFVLLNLVYETTDKHLSPDGQYVPRIMFVAPSLTVRADITGRYSNRLYAYEPADTALLLDNMKKALKLLKTEL [chain 1 D112A], the response is reported as ~110 RLU.
In the case of chain 1 RDTTVKPGAKKDTKDSRPKLPQTLSRGWGDQLIWTQTYEEALYKSKTSSKPLMIIHHLDECPHSQALKKVFAENKEIQKLAEQFVLLNLVYETTDKHLSPDGQYVPRIMFVDASLTVRADITGRYSNRLYAYEPADTALLLDNMKKALKLLKTEL [chain 1 P113A], the response is reported as ~35 RLU.

Variants of: B2
Test: competition ELISA (AGR2 binding to immobilised biotinylated peptide A4 with free competitor peptide); 1 μg AGR2; 100 ng competitor peptide; RLU is AGR2 bound to peptide A4, so lower RLU = stronger competitor binding; DMSO (no competitor) est. 79; read off a plot
In the case of chain 1 PTTIFY [chain 1 Y5F], the response is reported as ~40 RLU.
For chain 1 PTTIWY [chain 1 Y5W], the response was ~20 RLU.
Variant chain 1 PTTIAY [chain 1 Y5A] has a response of ~84 RLU.
chain 1 PTIIYY [chain 1 T3I] showed a response of ~75 RLU.
For chain 1 PTGIYY [chain 1 T3G], the response was ~12 RLU.
In the case of chain 1 PTVIYY [chain 1 T3V], the response is reported as ~35 RLU.
For chain 1 PTSIYY [chain 1 T3S], the response was ~7 RLU.
In the case of chain 1 PTAIYY [chain 1 T3A], the response is reported as ~6 RLU.
For chain 1 PTMIYY [chain 1 T3M], the response was ~8 RLU.
chain 1 PTLIYY [chain 1 T3L] gave a response of ~66 RLU.
In the case of chain 1 PTTLYY [chain 1 I4L], the response is reported as ~44 RLU.
chain 1 PTTAYY [chain 1 I4A] showed a response of ~83 RLU.
With chain 1 PTTVYY [chain 1 I4V] the response was ~55 RLU.
chain 1 PTTMYY [chain 1 I4M] was tested, and the response was ~80 RLU.
chain 1 ITTIYY [chain 1 P1I] gave a response of ~7.5 RLU.
Variant chain 1 FTTIYY [chain 1 P1F] has a response of ~6 RLU.
chain 1 GTTIYY [chain 1 P1G] gave a response of ~7.5 RLU.
In the case of chain 1 VTTIYY [chain 1 P1V], the response is reported as ~11 RLU.
Work on chain 1 LTTIYY [chain 1 P1L] yielded a response of ~15 RLU.
chain 1 ATTIYY [chain 1 P1A] was tested, and the response was ~6 RLU.
With chain 1 MTTIYY [chain 1 P1M] the response was ~17 RLU.
Variant chain 1 WTTIYY [chain 1 P1W] has a response of ~9 RLU.
Work on chain 1 PSTIYY [chain 1 T2S] yielded a response of ~83 RLU.
With chain 1 PCTIYY [chain 1 T2C] the response was ~80 RLU.
chain 1 PATIYY [chain 1 T2A] showed a response of ~84 RLU.
chain 1 PTTIYF [chain 1 Y6F] was tested, and the response was ~25 RLU.
Work on chain 1 PTTIYA [chain 1 Y6A] yielded a response of ~60 RLU.
